Laboratory results taken from US20040072301A1 (VAN ANDEL RESEARCH INSTITUTE, published 2004).
Substitutions are numbered along the chain they refer to. Names and notes keep the numbering of the source.

B1: mDia2 FH1 (amino acids 521-630), yeast two-hybrid Gal4 fusion (other, not shown: small tags and cut ends)
chain: AELQAFKSQFGALPPGTKIPLQPSVEGEAGPSALPPAPPALSGGVPPPPPPPPPPPPPLPGMPMPFGGPVPPPPPLGFLGGQSSIPLNLPFGLKPKKEFKPEISMRRLNW
B2: GST fusion of mDia2 FH1 (amino acids 521-630) (other)
chain: B1 chain
notes: not shown: glutathione-S-transferase tag of pGEX-KG
B3: GST-DAD K1059E/R1060E (other)
chain: MKTEGDETGVMDSLLEALQSGAAFRDRREETPKLKDIRQSLSPMSQRPVLKVCNHENQKMQLTEGSRPHHSINCNSTRTPVAKELNYNLDTHASTGRIKAVEKEACNAESNKKKEMELLGSVAKSESVPEVEALLARLRAL
notes: not shown: Glutathione-S-transferase carrier (pGEX-KG) and its linker at the N end
B4: mDia2 DAD M1041A, yeast two-hybrid Gal4 fusion (other, not shown: small tags and cut ends)
chain: B3 chain with M11A, E29K, E30R
B5: mDia2 DAD L1044A, yeast two-hybrid Gal4 fusion (other, not shown: small tags and cut ends)
chain: B3 chain with L14A, E29K, E30R
B6: GST-DAD R1057E/R1058E (other)
chain: B3 chain with R27E, R28E, E29K, E30R
notes: as for B3
B7: mDia2 DAD L1048A, yeast two-hybrid Gal4 fusion (other, not shown: small tags and cut ends)
chain: B3 chain with L18A, E29K, E30R
B8: GST fusion of mDia2 GBD (amino acids 101-216) (other)
chain: VLKLFEKMMEDMNLNEDKKAPLREKDFGIKKEMVMQYINTASKTGSLRSSRQISPQEFLHELKMGYTDERLFTYLESLRVSLTSHPVSWVQSFGHEGLGLLLDILEKLINGQIQEK
notes: as for B2
B9: GST fusion of mDia2 FH2 (amino acids 801-910) (other)
chain: AVSTACEEIKKSKGFSKLLELVLLMGNYMNAGSRNAQTFGFDLSSLCKLKDTKSADQKTTLLHFLVDVCEEKHADILHFVDDLAHLDKASRVSVEMLEKNVKQMGRQLQQ
notes: as for B2
B10: mDia2 FH2 (amino acids 801-910), yeast two-hybrid Gal4 fusion (other, not shown: small tags and cut ends)
chain: B9 chain

Key:
[1] = target: T1, mDia2 DAD (amino acids 1031-1171), yeast two-hybrid Gal4 fusion (mouse, UniProt Q9Z207 1031-1171); experiment: yeast two-hybrid, HIS reporter growth on 3-aminotriazole
T1 construct: Two-hybrid construct; also called DRF-autoregulatory domain; Dia-autoregulatory domain
Method: Yeast reporter strain HF7c was transformed with the indicated ‘bait’ (Trp⁻) and ‘prey’ (Leu⁻) plasmids before restreaking on selective plates (His) with increasing concentrations 3-aminotriazole (0, 2, 4, 8, 16, 32, and 64 mM) that selects for correlating expression of the HIS-reporter gene. The indicated numbers correspond to the highest concentration of 3-AT on which there was growth after 3 days. […] The mDia2 plasmid encodes amino acids 47-800.
(§1) Two-hybrid assays and in vitro translation/GST-pull downs were conducted as previously described (Kikyo et al., supra; Hill, C. S. et al., supra). In short, the indicated ‘bait’ proteins were generated by subcloning the indicated cDNAs into pGBT9 Gal4 DNA binding domain plasmid; ‘prey’ were Gal4 activation domain fusion proteins generated in either pGAD 10 or pSE1107. HF7c (Clontech) reporter yeast strain were co-transformed with the indicated plasmids and selected on appropriate plates for bait and prey auxotrophic markers, then restreaked onto His-plate to select for Gal4 regulated HIS reporter expression. Levels of reporter activity were monitored by replicate streaking onto Trp/Leu/His-plates with increasing concentrations (0-64 mM) of 3-aminotriazole.

[2] = target: T2, Arp2/3 complex from NIH 3T3 cell lysates (UniProt P61161 1-394; Q99JY9 2-418; Q9WV32 1-372; Q9CVB6 1-300; Q9JM76 2-178; P59999 …); experiment: GST pull-down from NIH 3T3 cell extracts, immunoblot
Method: (§2) Recombinant protein purification, in vitro GST-‘pull downs’ and two-hybrid assays. Two-hybrid assays and in vitro translation/GST-pull downs were conducted as previously described (Tominaga et al., supra; Sahai, E. et al., Embo J 17, 1350-61 (1998)). […] Beads were rinsed three times with PBS 1×supplemented with 0.1 μg/μl of BSA and were analyzed by SDS-PAGE and immunoblotted with purified antibodies recognising either Arp3, p34, or actin. For pull-downs from cell extracts, NIH 3T3 cells were lysed and extracted as per (Machesky, L. M. et al., Curr Biol 8, 1347-56 (1998)), and incubated with purified GST-fusion proteins bound to glutathione beads before extensive washing, separation by SDS-PAGE, transfer, and immunoblotting.
After incubation, the complexes were washed extensively and the resulting protein complexes were separated by SDS-PAGE, transferred to membranes, and analyzed by Western blots using antibodies directed to actin, Arp3 and p34 Arc (Welch, M. D. et al., Nature 385, 265-9 (1997)).

[3] = target: T2, Arp2/3 complex from NIH 3T3 cell lysates; experiment: GST pull-down from NIH 3T3 cell lysates, immunoblot with anti-p34 Arc
Method: 15 μg of the indicated fusion protein was indubated with lysates as in FIGS. 7a-7c. Bound material was detected after extensive washing and immunoblotting with anti-p34 Arc.
as §2

[4] = target: mDia2 (amino acids 47-800), yeast two-hybrid Gal4 fusion (mouse, UniProt Q9Z207 47-800); experiment: yeast two-hybrid
Method: as §1
The mutants were tested for binding by two-hybrid analysis and were then expressed in cells.

Chain of mDia2 (amino acids 47-800), yeast two-hybrid Gal4 fusion (Q9Z207 47-800 limits assumed): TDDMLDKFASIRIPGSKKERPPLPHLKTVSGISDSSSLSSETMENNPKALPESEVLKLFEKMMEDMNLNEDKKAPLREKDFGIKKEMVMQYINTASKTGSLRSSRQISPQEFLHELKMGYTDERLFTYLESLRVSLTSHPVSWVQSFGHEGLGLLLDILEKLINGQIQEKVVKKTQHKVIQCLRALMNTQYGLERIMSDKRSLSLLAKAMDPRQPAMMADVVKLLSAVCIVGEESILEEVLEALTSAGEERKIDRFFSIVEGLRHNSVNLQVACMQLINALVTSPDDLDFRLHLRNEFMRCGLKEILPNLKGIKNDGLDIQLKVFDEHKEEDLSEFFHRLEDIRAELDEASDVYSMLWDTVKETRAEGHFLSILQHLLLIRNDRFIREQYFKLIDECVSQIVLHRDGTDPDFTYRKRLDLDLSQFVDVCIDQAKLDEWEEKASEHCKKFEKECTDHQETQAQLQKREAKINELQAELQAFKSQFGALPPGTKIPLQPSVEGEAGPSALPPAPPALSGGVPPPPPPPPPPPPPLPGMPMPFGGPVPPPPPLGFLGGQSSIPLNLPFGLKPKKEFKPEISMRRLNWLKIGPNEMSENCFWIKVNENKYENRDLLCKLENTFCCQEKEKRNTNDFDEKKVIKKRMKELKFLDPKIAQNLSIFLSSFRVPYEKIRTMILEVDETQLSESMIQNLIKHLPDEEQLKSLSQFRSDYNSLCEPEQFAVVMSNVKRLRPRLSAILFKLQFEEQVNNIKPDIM

Row | Binder | binding result [2] | binding result [4] | also measured
1 | B1 | – | – | binding result [1]: no binding
2 | B2 | no binding | – | –
3 | B3 | – | – | binding result [3]: no binding (tested: 15 ug fusion protein)
4 | B4 | – | no binding | –
5 | B5 | – | no binding | –
6 | B6 | – | – | binding result [3]: no binding (tested: 15 ug fusion protein)
7 | B7 | – | no binding | –
8 | B8 | no binding | – | –
9 | B9 | no binding | – | –
10 | B10 | – | – | binding result [1]: no binding
